Assays:
[1] = target: hemagglutinin (HA) ectodomain from A/New York/107/2003 (H7N2) (influenza A virus A/New York/107/2003 (H7N2)); experiment: crystal structure
[2] = target: hemagglutinin (HA) ectodomain from A/New York/107/2003 (H7N2) (influenza A virus A/New York/107/2003 (H7N2)); experiment: SEC

hemagglutinin (HA) ectodomain from A/New York/107/2003 (H7N2) (natural protein)
stoichiometry N [1]: 3
stoichiometry N [2]: 3
